Results taken from article PMC6449974 (2019).

Target: Cyclophilin A (Homo sapiens, UniProt P62937)
Assay: SPR

B1: HIV-1 capsid protein CA (unassembled) (protein)
chain: not shown
Q: How did the Kd turn out when B1 was run?
A: The Kd was about 27 µM.
